Source: patent publication US20200087400A1 (EUREKA THERAPEUTICS, published 2020)

B1: PSA146/HLA-A*02:01-specific scFv phage clone #14 (scFv, V domains shown)
VH: EVQLVQSGAEVKKPGASVKVSCKASGYTFTGYFMHWVRQAPGQGLEWMGGFDPEDGETIYAQKFQGRVTMTEDTSTDTAYMELSSLRSEDTAVYYCARYSYDLWGQGTLVTVSS
VL: QTVVTQEPSLTVSPGGTVTLTCASSTGAVTSGYYPNWFQQKPGQAPRALIYSTSNKHSWTPARFSGSLLGGKAALTLSGVQPEDEAEYYCLLYYGGAQWVFGGGTKLTVLG
B2: PSA146/HLA-A*02:01-specific scFv phage clone #15 (scFv, V domains shown)
VH: QVQLVQSGAEVKKPGSSVKVSCKASGGTFSSYAISWVRQAPGQGLEWMGRIIPILGIANYAQKFQGRVTITADKSTSTAYMELSSLRSEDTAVYYCARVSQPVYGSSTYDIWGQGTLVTVSS
VL: QAVLTQPPSASGTPGQRVTISCSGRSSNLGSNSVNWYQQVPGTAPKLLIFDNHQRPSGVPDRFSGSKSGTSASLAISGLRSEDETDYYCAAWDDSLNSVVFGGGTKLTVLG
B3: PSA146/HLA-A*02:01-specific scFv phage clone #18 (scFv, V domains shown)
VH: QVQLVQSGAEVKKPGESLKISCKGSGYSFTSYWIGWVRQMPGKGLEWMGIIYPGDSDTRYSPSFQGQVTISADKSISTAYLQWSSLKASDTAMYYCARWGSRGFLDAFDIWGQGTMVTVSS
VL: QSVVTQPPSVSAAPGQRVTISCSGSSSNIGNNYVSWYQQLPGAAPRLLIYDNDKRPSGIPDRFSGSKSGTSATLGITGLQTGDEADYYCGTWDSSLSSGVFGGGTKLTVLG

Key:
[1] = target: T1, control peptide A2E-15/HLA-A*02:01 complex on T2 cells (member of the P19 mixture) (human); test: flow cytometry, phage on T2 cells
T1 construct: Loaded on T2 cells as part of the mixture of 19 control peptides
Description: (§1) Individual phage clones from enriched phage display panning pools against PSA146/HLA-A*02:01 complex were incubated in the coated plates. Binding of the phage clones was detected by HRP-conjugated anti-M13 antibodies and developed using HRP substrate. The absorbance was read at 450 nm. […] Then, unique antibody clones were identified through DNA sequencing of ELISA-positive clones. […] T2 cells loaded with different peptides and β2M were first stained with purified scFv phage clones, followed by staining with a mouse anti-M13 mAb, and finally R-PE conjugated horse anti-mouse IgG from Vector Labs. Each step of the staining was performed for between 30-60 minutes on ice and the cells were washed twice between stainings. All 16 clones recognized PSA146-loaded T2 cells specifically. FIG. 3 provides examples of PSA146/HLA-A*02:01 specific phage clone binding to peptide-loaded T2 cells through FACS.

[2] = target: T2, control peptide A2E-13/HLA-A*02:01 complex on T2 cells (member of the P19 mixture) (human); test: flow cytometry, phage on T2 cells
T2 construct: Loaded on T2 cells as part of the mixture of 19 control peptides
Description: as §1

[3] = target: T3, control peptide A2E-6/HLA-A*02:01 complex on T2 cells (member of the P19 mixture) (human); test: flow cytometry, phage on T2 cells
T3 construct: Loaded on T2 cells as part of the mixture of 19 control peptides
Description: as §1

[4] = target: T4, control peptide A2E-21/HLA-A*02:01 complex on T2 cells (member of the P19 mixture) (human); test: flow cytometry, phage on T2 cells
T4 construct: Loaded on T2 cells as part of the mixture of 19 control peptides
Description: as §1

[5] = target: T5, control peptide A2E-8/HLA-A*02:01 complex on T2 cells (member of the P19 mixture) (human); test: flow cytometry, phage on T2 cells
T5 construct: Loaded on T2 cells as part of the mixture of 19 control peptides
Description: as §1

[6] = target: T6, control peptide A2E-3/HLA-A*02:01 complex on T2 cells (member of the P19 mixture) (human); test: flow cytometry, phage on T2 cells
T6 construct: Loaded on T2 cells as part of the mixture of 19 control peptides
Description: as §1

[7] = target: T7, control peptide A2E-1/HLA-A*02:01 complex on T2 cells (member of the P19 mixture) (human); test: flow cytometry, phage on T2 cells
T7 construct: Loaded on T2 cells as part of the mixture of 19 control peptides
Description: as §1

[8] = target: T8, control peptide A2E-9/HLA-A*02:01 complex on T2 cells (member of the P19 mixture) (human); test: flow cytometry, phage on T2 cells
T8 construct: Loaded on T2 cells as part of the mixture of 19 control peptides
Description: as §1

[9] = target: T9, control peptide A2E-2/HLA-A*02:01 complex on T2 cells (member of the P19 mixture) (human); test: flow cytometry, phage on T2 cells
T9 construct: Loaded on T2 cells as part of the mixture of 19 control peptides
Description: as §1

[10] = target: T10, control peptide A2E-7/HLA-A*02:01 complex on T2 cells (member of the P19 mixture) (human); test: flow cytometry, phage on T2 cells
T10 construct: Loaded on T2 cells as part of the mixture of 19 control peptides
Description: as §1

[11] = target: T11, control peptide A2E-11/HLA-A*02:01 complex on T2 cells (member of the P19 mixture) (human); test: flow cytometry, phage on T2 cells
T11 construct: Loaded on T2 cells as part of the mixture of 19 control peptides
Description: as §1

[12] = target: T12, control peptide A2E-17/HLA-A*02:01 complex on T2 cells (member of the P19 mixture) (human); test: flow cytometry, phage on T2 cells
T12 construct: Loaded on T2 cells as part of the mixture of 19 control peptides
Description: as §1

[13] = target: T13, control peptide A2E-19/HLA-A*02:01 complex on T2 cells (member of the P19 mixture) (human); test: flow cytometry, phage on T2 cells
T13 construct: Loaded on T2 cells as part of the mixture of 19 control peptides
Description: as §1

[14] = target: T14, control peptide A2E-4/HLA-A*02:01 complex on T2 cells (member of the P19 mixture) (human); test: flow cytometry, phage on T2 cells
T14 construct: Loaded on T2 cells as part of the mixture of 19 control peptides
Description: as §1

[15] = target: T15, control peptide A2E-23/HLA-A*02:01 complex on T2 cells (member of the P19 mixture) (human); test: flow cytometry, phage on T2 cells
T15 construct: Loaded on T2 cells as part of the mixture of 19 control peptides
Description: as §1

[16] = target: T16, control peptide A2E-14/HLA-A*02:01 complex on T2 cells (member of the P19 mixture) (human); test: flow cytometry, phage on T2 cells
T16 construct: Loaded on T2 cells as part of the mixture of 19 control peptides
Description: as §1

[17] = target: T17, control peptide A2E-16/HLA-A*02:01 complex on T2 cells (member of the P19 mixture) (human); test: flow cytometry, phage on T2 cells
T17 construct: Loaded on T2 cells as part of the mixture of 19 control peptides
Description: as §1

[18] = target: T18, control peptide A2E-5/HLA-A*02:01 complex on T2 cells (member of the P19 mixture) (human); test: flow cytometry, phage on T2 cells
T18 construct: Loaded on T2 cells as part of the mixture of 19 control peptides
Description: as §1

[19] = target: T19, control peptide A2E-10/HLA-A*02:01 complex on T2 cells (member of the P19 mixture) (human); test: flow cytometry, phage on T2 cells
T19 construct: Loaded on T2 cells as part of the mixture of 19 control peptides
Description: as §1

[20] = target: T20, PSA 146-154 peptide/HLA-A*02:01 complex on the cell surface (human); test: flow cytometry, phage on T2 cells, anti-M13 + R-PE anti-mouse IgG
T20 construct: also called PSA146/HLA-A*02:01; PSA146-loaded T2 cells
How it was run: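 Flow read-out uses R-PE fluorescence: peptide/β2M-loaded T2 cells stained with scFv phage, then anti-M13 and R-PE anti-mouse IgG, all on ice for 30-60 min per step with double washes.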

Bio-P19 member A2E-2 = target: T21, Bio-P19 member A2E-2 (chain 2 carries a C-terminal BirA substrate peptide (BSP), enzymatically biotinylated; the BSP letters are not given in the patent and are left out); test: phage ELISA, streptavidin plate, anti-M13-HRP
T21 construct: also called biotinylated control peptide A2E-2/HLA-A*02:01 monomer
How it was run: (§2)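 Phage clones selected by panning against PSA146/HLA-A*02:01 are tested by ELISA in coated streptavidin plates, with HRP-labelled anti-M13 and substrate development read at 450 nm.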

Bio-P19 member A2E-23 = target: T22, Bio-P19 member A2E-23 (chain 2 carries a C-terminal BirA substrate peptide (BSP), enzymatically biotinylated; the BSP letters are not given in the patent and are left out); test: phage ELISA, streptavidin plate, anti-M13-HRP
T22 construct: also called biotinylated control peptide A2E-23/HLA-A*02:01 monomer
How it was run: as §2

Bio-P19 member A2E-3 = target: T23, Bio-P19 member A2E-3 (chain 2 carries a C-terminal BirA substrate peptide (BSP), enzymatically biotinylated; the BSP letters are not given in the patent and are left out); test: phage ELISA, streptavidin plate, anti-M13-HRP
T23 construct: also called biotinylated control peptide A2E-3/HLA-A*02:01 monomer
How it was run: as §2

Binder | binding result [1] | binding result [2] | binding result [3] | binding result [4] | binding result [5] | binding result [6] | binding result [7] | binding result [8] | binding result [9] | binding result [10] | binding result [11] | binding result [12] | binding result [13] | binding result [14] | binding result [15] | binding result [16] | binding result [17] | binding result [18] | binding result [19] | binding result [20] | other results
B1 | no binding | no binding | no binding | no binding | no binding | no binding | no binding | no binding | no binding | no binding | no binding | no binding | no binding | no binding | no binding | no binding | no binding | no binding | no binding | binds | binding result (Bio-P19 member A2E-2): no binding; binding result (Bio-P19 member A2E-23): no binding; binding result (Bio-P19 member A2E-3): no binding
B2 | no binding | no binding | no binding | no binding | no binding | no binding | no binding | no binding | no binding | no binding | no binding | no binding | no binding | no binding | no binding | no binding | no binding | no binding | no binding | binds | binding result (Bio-P19 member A2E-2): no binding; binding result (Bio-P19 member A2E-23): no binding; binding result (Bio-P19 member A2E-3): no binding
B3 | no binding | no binding | no binding | no binding | no binding | no binding | no binding | no binding | no binding | no binding | no binding | no binding | no binding | no binding | no binding | no binding | no binding | no binding | no binding | binds | binding result (Bio-P19 member A2E-2): no binding; binding result (Bio-P19 member A2E-23): no binding; binding result (Bio-P19 member A2E-3): no binding
